Consider 3 molecules from patent US20230365655A1.

The target in the test is mouse anti V5 antibody (Thermo Scientific). Description: ELISA: 1 ug/ml mouse anti V5 with increasing SADC, complexes captured on streptavidin plate, bound IgG detected with anti mouse IgG-HRP.

Where no end group is shown, it is not given here. [ ]: non-standard residue; d: D form.

Usually EC50 stands for the concentration giving half of the maximal effect.

Molecule IPNPLLGLDGGSGDYKDDDDKGK[BiotinAca]GC (peptide, part only; not given: transferrin scaffold, part only, also: several copies coupled to transferrin scaffold, number not given here) [SADC with transferrin scaffold carrying the tagged V5 peptide] yielded a concentration giving a half-maximal response (EC50) of 0.007 mg/L.

Take IPNPLLGLDGGSGDYKDDDDKGK[BiotinAca]GC (peptide, part only; not given: haptoglobin scaffold, part only, also: several copies coupled to haptoglobin scaffold, number not given here) [SADC with haptoglobin scaffold carrying the tagged V5 peptide]: the EC50 was found to be 0.0555 mg/L. Against the preceding molecule, the EC50 is about 7.9-fold higher.

IPNPLLGLDGGSGDYKDDDDKGK[BiotinAca]GC (peptide, part only; not given: albumin scaffold, part only, also: several copies coupled to albumin scaffold, number not given here) [SADC with albumin scaffold carrying the tagged V5 peptide] gave an EC50 of 0.0279 mg/L.
